According to patent US20030180895A1:

Key:
Assay in all cases: cell-based or functional assay
[1] = molecular target: Bacillus subtilis wild type xylanase A (Bacillus subtilis) (UniProt P18429)
[2] = molecular target: Bacillus subtilis xylanase A mutant D119K (Bacillus subtilis) (UniProt P18429)
[3] = molecular target: Bacillus subtilis xylanase A mutant D119N (Bacillus subtilis) (UniProt P18429)
[4] = molecular target: Bacillus subtilis xylanase A mutant D11K (Bacillus subtilis) (UniProt P18429)
[5] = molecular target: Bacillus subtilis xylanase A mutant D11N (Bacillus subtilis) (UniProt P18429)
[6] = molecular target: Bacillus subtilis xylanase A mutant D121A (Bacillus subtilis) (UniProt P18429)
[7] = molecular target: Bacillus subtilis xylanase A mutant D121N (Bacillus subtilis) (UniProt P18429)
[8] = molecular target: Bacillus subtilis xylanase A mutant G120F (Bacillus subtilis) (UniProt P18429)
[9] = molecular target: Bacillus subtilis xylanase A mutant G120N (Bacillus subtilis) (UniProt P18429)
[10] = molecular target: Bacillus subtilis xylanase A mutant G120Y (Bacillus subtilis) (UniProt P18429)
[11] = molecular target: Bacillus subtilis xylanase A mutant G13F (Bacillus subtilis) (UniProt P18429)
[12] = molecular target: Bacillus subtilis xylanase A mutant G34D (Bacillus subtilis) (UniProt P18429)
[13] = molecular target: Bacillus subtilis xylanase A mutant G34T (Bacillus subtilis) (UniProt P18429)
[14] = molecular target: Bacillus subtilis xylanase A mutant N114F (Bacillus subtilis) (UniProt P18429)
[15] = molecular target: Bacillus subtilis xylanase A mutant N114K (Bacillus subtilis) (UniProt P18429)
[16] = molecular target: Bacillus subtilis xylanase A mutant N17D (Bacillus subtilis) (UniProt P18429)
[17] = molecular target: Bacillus subtilis xylanase A mutant N29D (Bacillus subtilis) (UniProt P18429)
[18] = molecular target: Bacillus subtilis xylanase A mutant N29K (Bacillus subtilis) (UniProt P18429)
[19] = molecular target: Bacillus subtilis xylanase A mutant N32K (Bacillus subtilis) (UniProt P18429)
[20] = molecular target: Bacillus subtilis xylanase A mutant Q175E (Bacillus subtilis) (UniProt P18429)
[21] = molecular target: Bacillus subtilis xylanase A mutant Q175L (Bacillus subtilis) (UniProt P18429)
[22] = molecular target: Bacillus subtilis xylanase A mutant R122F (Bacillus subtilis) (UniProt P18429)
[23] = molecular target: Bacillus subtilis xylanase A mutant S31D (Bacillus subtilis) (UniProt P18429)
[24] = molecular target: Bacillus subtilis xylanase A mutant S31Y (Bacillus subtilis) (UniProt P18429)
[25] = molecular target: Bacillus subtilis xylanase A mutant T123Y (Bacillus subtilis) (UniProt P18429)
[26] = molecular target: Bacillus subtilis xylanase A mutant Y113A (Bacillus subtilis) (UniProt P18429)
[27] = molecular target: Bacillus subtilis xylanase A mutant Y113D (Bacillus subtilis) (UniProt P18429)

## wheat endogenous xylanase inhibitor
[1]
  Relative inhibition, % at 1, 26 XIU/ml: 77%
  Relative inhibition, % at 3, 15 XIU/ml: 48%
  Relative inhibition, % at 6, 3 XIU/ml: 29%
  Relative inhibition, % at 12, 6 XIU/ml: 23%
[2]
  Relative inhibition, % at 1, 26 XIU/ml: 94%
  Relative inhibition, % at 3, 15 XIU/ml: 67%
  Relative inhibition, % at 6, 3 XIU/ml: 40%
  Relative inhibition, % at 12, 6 XIU/ml: 26%
[3]
  Relative inhibition, % at 1, 26 XIU/ml: 91%
  Relative inhibition, % at 3, 15 XIU/ml: 74%
  Relative inhibition, % at 6, 3 XIU/ml: 44%
  Relative inhibition, % at 12, 6 XIU/ml: 22%
[4]
  Relative inhibition, % at 1, 26 XIU/ml: 109%
  Relative inhibition, % at 3, 15 XIU/ml: 112%
  Relative inhibition, % at 6, 3 XIU/ml: 113%
  Relative inhibition, % at 12, 6 XIU/ml: 116%
[5]
  Relative inhibition, % at 1, 26 XIU/ml: 93%
  Relative inhibition, % at 3, 15 XIU/ml: 72%
  Relative inhibition, % at 6, 3 XIU/ml: 53%
  Relative inhibition, % at 12, 6 XIU/ml: 32%
[6]
  Relative inhibition, % at 1, 26 XIU/ml: 81%
  Relative inhibition, % at 3, 15 XIU/ml: 50%
  Relative inhibition, % at 6, 3 XIU/ml: 27%
  Relative inhibition, % at 12, 6 XIU/ml: 21%
[7]
  Relative inhibition, % at 1, 26 XIU/ml: 80%
  Relative inhibition, % at 3, 15 XIU/ml: 36%
  Relative inhibition, % at 6, 3 XIU/ml: 16%
  Relative inhibition, % at 12, 6 XIU/ml: 14%
[8]
  Relative inhibition, % at 1, 26 XIU/ml: 71%
  Relative inhibition, % at 3, 15 XIU/ml: 35%
  Relative inhibition, % at 6, 3 XIU/ml: 18%
  Relative inhibition, % at 12, 6 XIU/ml: 15%
[9]
  Relative inhibition, % at 1, 26 XIU/ml: 84%
  Relative inhibition, % at 3, 15 XIU/ml: 49%
  Relative inhibition, % at 6, 3 XIU/ml: 29%
  Relative inhibition, % at 12, 6 XIU/ml: 23%
[10]
  Relative inhibition, % at 1, 26 XIU/ml: 81%
  Relative inhibition, % at 3, 15 XIU/ml: 40%
  Relative inhibition, % at 6, 3 XIU/ml: 18%
  Relative inhibition, % at 12, 6 XIU/ml: 16%
[11]
  Relative inhibition, % at 1, 26 XIU/ml: 104%
  Relative inhibition, % at 3, 15 XIU/ml: 95%
  Relative inhibition, % at 6, 3 XIU/ml: 87%
  Relative inhibition, % at 12, 6 XIU/ml: 84%
[12]
  Relative inhibition, % at 1, 26 XIU/ml: 94%
  Relative inhibition, % at 3, 15 XIU/ml: 83%
  Relative inhibition, % at 6, 3 XIU/ml: 70%
  Relative inhibition, % at 12, 6 XIU/ml: 53%
[13]
  Relative inhibition, % at 1, 26 XIU/ml: 99%
  Relative inhibition, % at 3, 15 XIU/ml: 99%
  Relative inhibition, % at 6, 3 XIU/ml: 93%
  Relative inhibition, % at 12, 6 XIU/ml: 86%
[14]
  Relative inhibition, % at 1, 26 XIU/ml: 84%
  Relative inhibition, % at 3, 15 XIU/ml: 54%
  Relative inhibition, % at 6, 3 XIU/ml: 39%
  Relative inhibition, % at 12, 6 XIU/ml: 34%
[15]
  Relative inhibition, % at 1, 26 XIU/ml: 87%
  Relative inhibition, % at 3, 15 XIU/ml: 56%
  Relative inhibition, % at 6, 3 XIU/ml: 33%
  Relative inhibition, % at 12, 6 XIU/ml: 24%
[16]
  Relative inhibition, % at 1, 26 XIU/ml: 90%
  Relative inhibition, % at 3, 15 XIU/ml: 81%
  Relative inhibition, % at 6, 3 XIU/ml: 50%
  Relative inhibition, % at 12, 6 XIU/ml: 22%
[17]
  Relative inhibition, % at 1, 26 XIU/ml: 74%
  Relative inhibition, % at 3, 15 XIU/ml: 44%
  Relative inhibition, % at 6, 3 XIU/ml: 26%
  Relative inhibition, % at 12, 6 XIU/ml: 20%
[18]
  Relative inhibition, % at 1, 26 XIU/ml: 83%
  Relative inhibition, % at 3, 15 XIU/ml: 50%
  Relative inhibition, % at 6, 3 XIU/ml: 30%
  Relative inhibition, % at 12, 6 XIU/ml: 23%
[19]
  Relative inhibition, % at 1, 26 XIU/ml: 82%
  Relative inhibition, % at 3, 15 XIU/ml: 42%
  Relative inhibition, % at 6, 3 XIU/ml: 19%
  Relative inhibition, % at 12, 6 XIU/ml: 14%
[20]
  Relative inhibition, % at 1, 26 XIU/ml: 87%
  Relative inhibition, % at 3, 15 XIU/ml: 59%
  Relative inhibition, % at 6, 3 XIU/ml: 40%
  Relative inhibition, % at 12, 6 XIU/ml: 31%
[21]
  Relative inhibition, % at 1, 26 XIU/ml: 78%
  Relative inhibition, % at 3, 15 XIU/ml: 42%
  Relative inhibition, % at 6, 3 XIU/ml: 25%
  Relative inhibition, % at 12, 6 XIU/ml: 23%
[22]
  Relative inhibition, % at 1, 26 XIU/ml: 93%
  Relative inhibition, % at 3, 15 XIU/ml: 74%
  Relative inhibition, % at 6, 3 XIU/ml: 58%
  Relative inhibition, % at 12, 6 XIU/ml: 58%
[23]
  Relative inhibition, % at 1, 26 XIU/ml: 79%
  Relative inhibition, % at 3, 15 XIU/ml: 52%
  Relative inhibition, % at 6, 3 XIU/ml: 30%
  Relative inhibition, % at 12, 6 XIU/ml: 24%
[24]
  Relative inhibition, % at 1, 26 XIU/ml: 83%
  Relative inhibition, % at 3, 15 XIU/ml: 50%
  Relative inhibition, % at 6, 3 XIU/ml: 27%
  Relative inhibition, % at 12, 6 XIU/ml: 22%
[25]
  Relative inhibition, % at 1, 26 XIU/ml: 80%
  Relative inhibition, % at 3, 15 XIU/ml: 47%
  Relative inhibition, % at 6, 3 XIU/ml: 28%
  Relative inhibition, % at 12, 6 XIU/ml: 27%
[26]
  Relative inhibition, % at 1, 26 XIU/ml: 96%
  Relative inhibition, % at 3, 15 XIU/ml: 80%
  Relative inhibition, % at 6, 3 XIU/ml: 62%
  Relative inhibition, % at 12, 6 XIU/ml: 43%
[27]
  Relative inhibition, % at 1, 26 XIU/ml: 96%
  Relative inhibition, % at 3, 15 XIU/ml: 81%
  Relative inhibition, % at 6, 3 XIU/ml: 63%
  Relative inhibition, % at 12, 6 XIU/ml: 45%
